Experimental data reported in patent US20180030151A1 (MOGAM INSTITUTE FOR BIOMEDICAL RESEARCH, published 2018).
Like-named read-outs stand apart in the source and are kept apart here.

Experiments:
Assay in all cases: cell-based or functional assay
[1] = target: T1, recombinant human TFPI (tissue factor pathway inhibitor) (human, UniProt P10646 29-304)
[2] = target: T1, recombinant human TFPI (tissue factor …); remark: listed apart in the source
[3] = target: T1, recombinant human TFPI (tissue factor …); remark: listed apart in the source
[4] = target: T1, recombinant human TFPI (tissue factor …); remark: listed apart in the source
[5] = target: T1, recombinant human TFPI (tissue factor …); remark: listed apart in the source
[6] = target: T1, recombinant human TFPI (tissue factor …); remark: listed apart in the source
[7] = target: T1, recombinant human TFPI (tissue factor …); remark: listed apart in the source
[8] = target: T1, recombinant human TFPI (tissue factor …); remark: listed apart in the source
[9] = target: T1, recombinant human TFPI (tissue factor …); remark: listed apart in the source
[10] = target: T1, recombinant human TFPI (tissue factor …); remark: listed apart in the source
[11] = target: T1, recombinant human TFPI (tissue factor …); remark: listed apart in the source

B1: clone 2 (antibody, V domains shown)
VH: EVQLVESGGGLVKPGGSLRLSCAASGFTFSSYAMNWVRQAPGKGLEWVSTITTGGSYTYYADSVEGRFTISRDNAKNSLYLQMNSLRAEDTAVYYCARQDGNFLMDYWGQGTLVTVSS
VL: DVVMTQTPLSLPVTLGQPASISCKSSPSLLDIDGKTYLNWLQQRPGQSPKRLIYLVSKLDSGVPDRFTGSGSGTDFTLKISRVEAEDVGVYYCWQGTHFPFTFGQGTKVEIKR
A405, TF/FVIIa/FX complex assay (FX 5 nM), Ab 1.56 nM [1]: 0.045
A405, TF/FVIIa/FX complex assay (FX 5 nM), Ab 3.13 nM [1]: 0.045
A405, TF/FVIIa/FX complex assay (FX 5 nM), Ab 6.25 nM [1]: 0.052
A405, TF/FVIIa/FX complex assay (FX 5 nM), Ab 12.5 nM [1]: 0.083
A405, TF/FVIIa/FX complex assay (FX 5 nM), Ab 25 nM [1]: 0.416
A405, TF/FVIIa/FX complex assay (FX 5 nM), Ab 50 nM [1]: 0.735
A405, TF/FVIIa/FX complex assay (FX 5 nM), Ab 100 nM [1]: 0.835
FXa assay % of FXa alone, 2.5 nM Ab, 10 nM TFPI [2]: 7.3%
FXa assay % of FXa alone, 5 nM Ab, 10 nM TFPI [2]: 32.8%
FXa assay % of FXa alone, 10 nM Ab, 10 nM TFPI [2]: 76.5%
FXa assay % of FXa alone, 20 nM Ab, 10 nM TFPI [2]: 87.2%
FXa assay OD, 2.5 nM Ab, 10 nM TFPI [2]: 0.0605
FXa assay OD, 5 nM Ab, 10 nM TFPI [2]: 0.271
FXa assay OD, 10 nM Ab, 10 nM TFPI [2]: 0.632
FXa assay OD, 20 nM Ab, 10 nM TFPI [2]: 0.721
% of Normalized, TF/FVIIa/FX complex assay (FX 5 nM), Ab 1.56 nM [3]: 5.5%
% of Normalized, TF/FVIIa/FX complex assay (FX 5 nM), Ab 3.13 nM [3]: 5.6%
% of Normalized, TF/FVIIa/FX complex assay (FX 5 nM), Ab 6.25 nM [3]: 6.4%
% of Normalized, TF/FVIIa/FX complex assay (FX 5 nM), Ab 12.5 nM [3]: 10.3%
% of Normalized, TF/FVIIa/FX complex assay (FX 5 nM), Ab 25 nM [3]: 51.4%
% of Normalized, TF/FVIIa/FX complex assay (FX 5 nM), Ab 50 nM [3]: 90.9%
% of Normalized, TF/FVIIa/FX complex assay (FX 5 nM), Ab 100 nM [3]: 103%
FXa assay % of FXa alone, 2.5 nM Ab, 10 nM TFPI [4]: 8.2%
FXa assay % of FXa alone, 5 nM Ab, 10 nM TFPI [4]: 45.3%
FXa assay OD, 2.5 nM Ab, 10 nM TFPI [4]: 0.0625
FXa assay OD, 5 nM Ab, 10 nM TFPI [4]: 0.345
FXa assay OD, 10 nM Ab, 10 nM TFPI [4]: 0.602
FXa assay OD, 20 nM Ab, 10 nM TFPI [4]: 0.58
effect of inhibiting TFPI, FXa activity assay, Ab 10 nM [5]: ~79%
effect of inhibiting TFPI, FXa activity assay, Ab 20 nM [5]: ~76%

B2: clone 3 (antibody, V domains shown)
VH: EVQLVESGGGLVKPGGSLRLSCAASGFTFSSYAMNWVRQAPGKGLEWVGTITTGGSHTYYADSVDGRFTISRDNAKNSLYLQMNSLRAEDTAVYYCARQDGNFLMDYWGQGTLVTVSS
VL: DVVMTQTPLSLPVTLGQPASISCKSSPSLLDVDGKTYLNWLQQRPGQSPKRLIYLVSKLDSGVPDRFTGSGSGTDFTLKISRVEAEDVGVYYCWQGTHFPFTFGQGTKVEIKR
A405, TF/FVIIa/FX complex assay (FX 5 nM), Ab 1.56 nM [1]: 0.045
A405, TF/FVIIa/FX complex assay (FX 5 nM), Ab 3.13 nM [1]: 0.046
A405, TF/FVIIa/FX complex assay (FX 5 nM), Ab 6.25 nM [1]: 0.059
A405, TF/FVIIa/FX complex assay (FX 5 nM), Ab 12.5 nM [1]: 0.141
A405, TF/FVIIa/FX complex assay (FX 5 nM), Ab 25 nM [1]: 0.527
A405, TF/FVIIa/FX complex assay (FX 5 nM), Ab 50 nM [1]: 0.743
A405, TF/FVIIa/FX complex assay (FX 5 nM), Ab 100 nM [1]: 0.842
% of Normalized, TF/FVIIa/FX complex assay (FX 5 nM), Ab 1.56 nM [3]: 5.6%
% of Normalized, TF/FVIIa/FX complex assay (FX 5 nM), Ab 3.13 nM [3]: 5.7%
% of Normalized, TF/FVIIa/FX complex assay (FX 5 nM), Ab 6.25 nM [3]: 7.2%
% of Normalized, TF/FVIIa/FX complex assay (FX 5 nM), Ab 12.5 nM [3]: 17.4%
% of Normalized, TF/FVIIa/FX complex assay (FX 5 nM), Ab 25 nM [3]: 65.1%
% of Normalized, TF/FVIIa/FX complex assay (FX 5 nM), Ab 50 nM [3]: 91.8%
% of Normalized, TF/FVIIa/FX complex assay (FX 5 nM), Ab 100 nM [3]: 104%
FXa assay % of FXa alone, 2.5 nM Ab, 10 nM TFPI [4]: 10.8%
FXa assay % of FXa alone, 5 nM Ab, 10 nM TFPI [4]: 45.5%
FXa assay OD, 2.5 nM Ab, 10 nM TFPI [4]: 0.0825
FXa assay OD, 5 nM Ab, 10 nM TFPI [4]: 0.346
FXa assay OD, 10 nM Ab, 10 nM TFPI [4]: 0.536
FXa assay OD, 20 nM Ab, 10 nM TFPI [4]: 0.618
effect of inhibiting TFPI, FXa activity assay, Ab 10 nM [5]: ~70%
effect of inhibiting TFPI, FXa activity assay, Ab 20 nM [5]: ~81%

B3: clone A67 (antibody, V domains shown)
VH: EVQLVESGGGLVKPGGSLRLSCAASGFTFSSYAMNWVRQAPGKGLEWVSTITTGGSYTYYADSVEGRFTISRDNAKNSLYLQMNSLRAEDTAVYYCARQDGNFLMDYWGQGTLVTVSS
VL: DVVMTQTPLSLPVTLGQPASISCKSSQSLLDLDGKTYLNWLQQRPGQSPKRLIYLVSKLDSGVPDRFTGSGSGTDFTLKISRVEAEDVGVYYCWQGTHFPFTFGQGTKVEIKR
FXa assay % of FXa alone, 2.5 nM Ab, 10 nM TFPI [6]: 9.2%
FXa assay % of FXa alone, 5 nM Ab, 10 nM TFPI [6]: 41.9%
FXa assay OD, 2.5 nM Ab, 10 nM TFPI [6]: 0.0745
FXa assay OD, 5 nM Ab, 10 nM TFPI [6]: 0.338
FXa assay OD, 10 nM Ab, 10 nM TFPI [6]: 0.543
FXa assay OD, 20 nM Ab, 10 nM TFPI [6]: 0.637
A405, TF/FVIIa/FX complex assay, Ab 1.56 nM [7]: 0.154
A405, TF/FVIIa/FX complex assay, Ab 3.13 nM [7]: 0.177
A405, TF/FVIIa/FX complex assay, Ab 6.25 nM [7]: 0.196
A405, TF/FVIIa/FX complex assay, Ab 12.5 nM [7]: 0.29
A405, TF/FVIIa/FX complex assay, Ab 25 nM [7]: 0.914
A405, TF/FVIIa/FX complex assay, Ab 50 nM [7]: 0.895
A405, TF/FVIIa/FX complex assay, Ab 100 nM [7]: 0.907
effect of inhibiting TFPI, FXa activity assay, Ab 10 nM [5]: ~67%
effect of inhibiting TFPI, FXa activity assay, Ab 20 nM [5]: ~79%
FXa assay % of FXa alone, 2.5 nM Ab, 10 nM TFPI [8]: 8%
FXa assay % of FXa alone, 5 nM Ab, 10 nM TFPI [8]: 28.8%
FXa assay % of FXa alone, 10 nM Ab, 10 nM TFPI [8]: 63.5%
FXa assay % of FXa alone, 20 nM Ab, 10 nM TFPI [8]: 75.8%
FXa assay OD, 2.5 nM Ab, 10 nM TFPI [8]: 0.065
FXa assay OD, 5 nM Ab, 10 nM TFPI [8]: 0.234
FXa assay OD, 10 nM Ab, 10 nM TFPI [8]: 0.516
FXa assay OD, 20 nM Ab, 10 nM TFPI [8]: 0.616
% of Normalized, TF/FVIIa/FX complex assay, Ab 1.56 nM [9]: 16.3%
% of Normalized, TF/FVIIa/FX complex assay, Ab 3.13 nM [9]: 18.7%
% of Normalized, TF/FVIIa/FX complex assay, Ab 6.25 nM [9]: 21.3%
% of Normalized, TF/FVIIa/FX complex assay, Ab 12.5 nM [9]: 36.1%
% of Normalized, TF/FVIIa/FX complex assay, Ab 25 nM [9]: 99.2%
% of Normalized, TF/FVIIa/FX complex assay, Ab 50 nM [9]: 102%
% of Normalized, TF/FVIIa/FX complex assay, Ab 100 nM [9]: 104%
% of Normalized, TF/FVIIa/FX complex assay, Ab 1.56 nM [10]: 16.1%
% of Normalized, TF/FVIIa/FX complex assay, Ab 3.13 nM [10]: 18.5%
% of Normalized, TF/FVIIa/FX complex assay, Ab 6.25 nM [10]: 20.5%
% of Normalized, TF/FVIIa/FX complex assay, Ab 12.5 nM [10]: 30.3%
% of Normalized, TF/FVIIa/FX complex assay, Ab 25 nM [10]: 95.8%
% of Normalized, TF/FVIIa/FX complex assay, Ab 50 nM [10]: 93.7%
% of Normalized, TF/FVIIa/FX complex assay, Ab 100 nM [10]: 95%
A405, TF/FVIIa/FX complex assay, Ab 1.56 nM [11]: 0.149
A405, TF/FVIIa/FX complex assay, Ab 3.13 nM [11]: 0.172
A405, TF/FVIIa/FX complex assay, Ab 6.25 nM [11]: 0.195
A405, TF/FVIIa/FX complex assay, Ab 12.5 nM [11]: 0.33
A405, TF/FVIIa/FX complex assay, Ab 25 nM [11]: 0.908
A405, TF/FVIIa/FX complex assay, Ab 50 nM [11]: 0.938
A405, TF/FVIIa/FX complex assay, Ab 100 nM [11]: 0.947
